According to patent publication US20170183415A1 (published 2017):
Values belong to the binder of their own block, whether it stands above or below them.

Legend:
CD123_AC = assay: ELISA; FIG. 30A
CD123_CA = assay: ELISA; FIG. 30A
CD123_DA = assay: ELISA; FIG. 30A
CD123_BD = assay: ELISA; FIG. 30A
CD123_AD = assay: ELISA; FIG. 30A
CD123_BC = assay: ELISA; FIG. 30B
immobilized CD123 [1] = biological target: T1, immobilized CD123 (UniProt P26951 19-305); assay: ELISA; FIG. 30A
T1 chain: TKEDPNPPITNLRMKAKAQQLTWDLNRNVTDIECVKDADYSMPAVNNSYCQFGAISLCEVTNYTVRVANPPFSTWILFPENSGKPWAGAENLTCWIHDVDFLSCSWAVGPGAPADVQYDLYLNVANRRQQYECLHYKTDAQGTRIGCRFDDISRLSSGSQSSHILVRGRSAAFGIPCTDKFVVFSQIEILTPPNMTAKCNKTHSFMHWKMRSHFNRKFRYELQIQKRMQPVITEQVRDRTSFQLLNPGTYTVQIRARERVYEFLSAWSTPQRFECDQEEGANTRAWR

immobilized CD123 [2] = biological target: T1, immobilized CD123; assay: ELISA; FIG. 30B

Kd (CD123_AC): 1.83 nM
Kd (CD123_CA): 10.2 nM
Kd (CD123_DA): 2.8 nM
Kd (CD123_BD): 1.12 nM
Kd (CD123_AD): 1.77 nM
Kd (CD123_BC): 3.25 nM
B1: CD123 (receptor)
chain: T1 chain

Kd (immobilized CD123 [1]): 2.56 nM
Kd (immobilized CD123 [2]): 1.04 nM
B2: parent mouse scFv (anti-CD123, clone 32716) (scFv)
scFv: DIVLTQSPASLAVSLGQRATISCRASESVDNYGNTFMHWYQQKPGQPPKLLIYRASNLESGIPARFSGSGSRTDFTLTINPVEADDVATYYCQQSNEDPPTFGAGTKLELKGGGGSGGGGSSGGGSQIQLVQSGPELKKPGETVKISCKASGYIFTNYGMNWVKQAPGKSFKWMGWINTYTGESTYSADFKGRFAFSLETSASTAYLHINDLKNEDTATYFCARSGGYDPMDYWGQGTSVTVSS
